# Results taken from PMC2330087, “Mechanistic Insights into a Novel Exporter-Importer System of Mycobacterium tuberculosis Unravel Its Role in Trafficking of Iron” (PLoS ONE, 2008).
# Columns and labels:
# [1] = target: IrtB-Rv2895c two-component system (rIrtB in LP-49 liposomes with rRv2895c) (Mycobacterium tuberculosis, UniProt P9WL31+P9WQJ7)
# [2] = target: the molecule itself; experiment: SEC + other: circular dichroism
# IrtB-Rv2895c two-component system (rIrtB in LP-49 liposomes with rRv2895c), sequence (P9WL31 whole entry, one chain of several): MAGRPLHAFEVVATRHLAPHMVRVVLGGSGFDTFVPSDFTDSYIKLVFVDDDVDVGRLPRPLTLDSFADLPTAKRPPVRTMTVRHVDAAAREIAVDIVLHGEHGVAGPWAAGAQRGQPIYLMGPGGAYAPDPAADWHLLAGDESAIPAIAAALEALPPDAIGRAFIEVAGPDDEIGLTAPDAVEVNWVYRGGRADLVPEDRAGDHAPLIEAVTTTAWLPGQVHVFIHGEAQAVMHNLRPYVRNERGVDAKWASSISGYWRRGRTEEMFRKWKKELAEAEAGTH
Molecule,inorganic phosphate release in proteoliposomes [1],binding result [2]
Nc1ncnc2c1ncn2[C@@H]1O[C@H](COP(=O)(O)OP(=O)(O)OP(=O)(O)O)[C@@H](O)[C@H]1O [ATP],The increase in ATPase activity of (a) LP-49 liposomes after incubation with Fe-cMyco bound rRv2895c,
"rIrtA (recombinant purified IrtA, Rv1348) (natural protein, also called p23-IrtA) MARGLQGVMLRSFGARDHTATVIETISIAPHFVRVRMVSPTLFQDAEAEPAAWLRFWFPDPNGSNTEFQRAYTISEADPAAGRFAVDVVLHDPAGPASSWARTVKPGATIAVMSLMGSSRFDVPEEQPAGYLLIGDSASIPGMNGIIETVPNDVPIEMYLEQHDDNDTLIPLAKHPRLRVRWVMRRDEKSLAEAIENRDWSDWYAWATPEAAALKCVRVRLRDEFGFPKSEIHAQAYWNAGRAMGTHRATEPAATEPEVGAAPQPESAVPAPARGSWRAQAASRLLAPLKLPLVLSGVLAALVTLAQLAPFVLLVELSRLLVSGAGAHRLFTVGFAAVGLLGTGALLAAALTLWLHVIDARFARALRLRLLSKLSRLPLGWFTSRGSGSIKKLVTDDTLALHYLVTHAVPDAVAAVVAPVGVLVYLFVVDWRVALVLFGPVLVYLTITSSLTIQSGPRIVQAQRWAEKMNGEAGSYLEGQPVIRVFGAASSSFRRRLDEYIGFLVAWQRPLAGKKTLMDLATRPATFLWLIAATGTLLVATHRMDPVNLLPFMFLGTTFGARLLGIAYGLGGLRTGLLAARHLQVTLDETELAVREHPREPLDGEAPATVVFDHVTFGYRPGVPVIQDVSLTLRPGTVTALVGPSGSGKSTLATLLARFHDVERGAIRVGGQDIRSLAADELYTRVGFVLQEAQLVHGTAAENIALAVPDAPAEQVQVAAREAQIHDRVLRLPDGYDTVLGANSGLSGGERQRLTIARAILGDTPVLILDEATAFADPESEYLVQQALNRLTRDRTVLVIAHRLHTITRADQIVVLDHGRIVERGTHEELLAAGGRYCRLWDTGQGSRVAVAAAQDGTR",,binds
"rIrtB (recombinant purified IrtB, Rv1349) (natural protein, also called p28-IrtB) MIRTWIALVPNDHRARLIGFALLAFCSVVARAVGTVLLVPLMAALFGEAPQRAWLWLGWLSAATVAGWVLDAVTARIGIELGFAVLNHTQHDVADRLPVVRLDWFTAENTATARQAIAATGPELVGLVVNLVTPLTSAILLPAVIALALLPISWQLGVAALAGVPLLLGALWASAAFARRADTAADKANTALTERIIEFARTQQALRAARRVEPARSLVGNALASQHTATMRLLGMQIPGQLLFSIASQLALIVLAGTTAALTITGTLTVPEAIALIVVMVRYLEPFTAVSELAPALESTRATLGRIGSVLTAPVMVAGSGTWRDGAVVPRIEFDDVAFGYDGGSGPVLDGVSFCLQPGTTTAIVGPSGCGKSTILALIAGLHQPTRGRVLIDGTDVATLDARAQQAVCSVVFQHPYLFHGTIRDNVFAADPGASDDQFAQAVRLARVDELIARLPDGANTIVGEAGSALSGGERQRVSIARALLKAAPVLLVDEATSALDAENEAAVVDALAADPRSRTRVIVAHRLASIRHADRVLFVDDGRVVEDGSISELLTAGGRFSQFWRQQHEAAEWQILAE",,binds
